Here are results for eight molecules from patent US20250262297A1, “ALLERGY ANTIGEN AND EPITOPE THEREOF” (HOYU CO., LTD., priority 2017, published 2025).

The chains are these.
B1: protein disulfide isomerase-like protein precursor (protein)
chain: MPKFFHSIFRGTMAGRVSTCFFFVFALSLLLPFQISAEESSEKEFVLTLDHSNFHDTVSKHDFIVVEFYAPWCGHCKKLAPEYEKAASILSSHDPPVVLAKIDANEEKNKDLASQYDVRGYPTIKILRNGGKNVQEYKGPREADGIVDYLKKQSGPASTEIKSADEATAFIGENKVAIVGVFPKFSGEEFDNFSALAEKLRSDYDFGHTLNAKHLPRGESSVSGPVVRLFKPFDELFVDFQDFNVEALEKFVEESSTPVVTVFNNDPSNHPFVAKFFNSPNAKAMLFINFTAEGAESFKSKYREAAEQHKQQGVSFLVGDVESSQGAFQYFGLKEEQVPLIIIQHNDGKKFFKPNLEADHIPTWLKAYKDGNVAPFVKSEPIPEANDEPVKVVVGNSLEDIVFKSGKNVLLEFYAPWCGHCKQLAPILDEVAISYQSDADVVIAKLDATANDIPSETFDVQGYPTVYFRSASGKLSQYEGGRTKEDIIEFIEKNRDKPAQQEQGQDKPAQQEQGQDEQEKGKDEL
modifications: Glycine max
notes: spot also identified as protein disulfide-isomerase
B2: endoplasmin homolog isoform X2 (protein)
chain: MRKWTVASALLLLSLLFLFADQGRKFQANAEGDSDELVDPPKVEDKIGAVPHGLSTDSDVVKREAESISKRSLRSNAEKFEFQAEVSRLMDIIINSLYSNKDIFLRELISNASDALDKIRFLSLTDKEVLGEGDNTKLDIQIKLDKEKKILSIRDRGIGMTKEDLIKNLGTIAKSGTSAFVEKMQTSGDLNLIGQFGVGFYSVYLVADYVEVISKNNDDKQYVWESKADGAFAISEDTWNEPLGRGTEIRLHLKEEAGEYLEESKLKELVKRYSEFINFPIYIWASKEVDVEVPADEDDSSDEEDSSESSSKEESEDEDADKSEDEEKKPKTKTVKETTYEWELLNDVKAIWLRNPKEVTEEEYTKFYHSLAKDFSDEKPLAWSHFTAEGDVEFKAVLFVPPKAPQDLYESYYNANKSNLKLYVRRVFISDEFNELLPKYLNFLLGLVDSDTLPLNVSREMLQQHSSLKTIKKKLIRKALDMIRRIADEDPDESTDKEKKDASSDNDEKKGQYSKFWNEFGKSIKLGIIEDATNRNRLAKLLRFESTKSEGKLTSLDQYISRMKTGQKDIFYITGTSKEQLENSPFLERLKKKNFEVIFFTDPVDEYLMQYLMDYEDKKFQNVSKEGLKLGKDSKDKELKESFKDLTKWWKTALSKDNVDDVKISNRLDNTPCVVVTSKFGWSANMERIMQSQTLSDASKQAYMRGKRVLEINPRHPIIKELRERVVKNPEDEGVKHTAQLMYQTALFESGFLLDDPKDFASRIYDSVKTSLDISPEATVEEEDDTEVEAESDAKEDSKPETDAVNDDNDVKDEL
modifications: Glycine max
B3: sucrose binding protein homolog S-64 (protein)
chain: ETEVEEDPELVTCKHQCQQQRQYTESDKRTCLQQCDSMKQEREKQVEEETREKEEEHQEQHEEEQDQNPYVFEEDKDFSTRVETEGGSIRVLKKFTEKSKLLQGNENFRLAILEARAHTFVSPRHFDSEVVLFNIKGRAVLGLVRESETEKITLEPGDMIHIPAGTPLYIVNRDENEKLLLAMLHIPVSTPGKFEEFFGPGGRDPESVLSAFSWNVLQAALQTPKGKLERLFNQQNEGSIFKISRERVRALAPTKKSSWWPFGGESKAQFNIFSKRPTFSNGYGRLTEVGPDDEKSWLQRLNLMLTFTNITQRSMSTIHYNSHATKIALVMDGRGHLQISCPHMSSRSDSKHDKSSPSYHRISADLKPGMVFVVPPGHPFVTIASNKENLLIICFEVNVRDNKKFTFAGKDNIVSSLDNVAKELAFNYPSEMVNGVFERKESLFFPFELPSEERGRRAVA
B4: hypothetical protein GLYMA_10G028300 (protein)
chain: ETEVEEEDPELVTCKHQCQQPQQYTEGDKRVCLQRCDRYHRMKQEREKQIQEETREKKEEESREREEEQQEQHEEQDENPYIFEEDKDFETRVETEGGRIRVLKKFTEKSKLLQGIENFRLAILEARAHTFVSPRHFDSEVVFFNIKGRAVLGLVSESETEKITLEPGDMIHIPAGTPLYIVNRDENDKLFLAMLHIPVSVSTPGKFEEFFGPGGRDPESVLSAFSWNVLQAALQTPKGKLEKLFDQQNEGSIFAISREQVRALAPTKKSSWWPFGGESKPQFNIFSKRPTISNGYGRLTEVGPDDDEKSWLQRLNLMLTFTNITQRSMSTIHYNSHATKIALVIDGRGHLQISCPHMSSRSSHSKHDKSSPSYHRISSDLKPGMVFVVPPGHPFVTIASNKENLLMICFEVNARDNKKFTFAGKDNIVSSLDNVAKELAFNYPSEMVNGVFDRKESFFFPFELPREERGRRADA
B5: succinyl-CoA ligase [ADP-forming] subunit beta, mitochondrial (protein)
chain: MVRGLLNKLVSRSLSVAGKWQHNQLRRLNIHEYQGAELMSKHGVNVPRGVAVSSVEEARKVIKDLFPNENELVVKSQILAGGRGLGTFKSGLKGGVHIVKTDQVEDIAGKMLGQILVTKQTGPQGKIVSKVYLCEKLSLVNEMYFAITLDRTSAGPIIIACSKGGTSIEDLAEKFPDMIIKVPVDVFEGITDEGAAKVVDGLALKVADRNKSIEQVKNLYKLFVDCDCTLLEINPIAETADNQLVAADAKLNFDDNAAYRQKEIFSLRDTTQEDPREVTAAKADLNYIGLDGEIGCMVNGAGLAMATMDIIKLHGGTPANFLDVGGNASENQVVEAFKILTADDKVKAILVNIFGGIMKCDVIASGIVNAAKEVALKVPVVVRLEGTNVDQGKRILKESGMALITAEDLDDAAQKAVKAAYK
modifications: Glycine max
B6: guanosine nucleotide diphosphate dissociation inhibitor 2 (protein)
chain: MDEEYDVIVLGTGLKECILSGLLSVDGLKVLHMDRNDYYGGESTSLNLIQLWKRFRGDDKPPPHLGASRDYNIDMNPKFIMANGNLVRVLIHTDVTKYLSFKAVDGSFVFNKGKVHKVPANDMEALKSPLMGLFEKRRARKFFIYVQNYNESDPKTHEGMDLTRVTTKELIAKYGLDDNTIDFIGHALALHSDDRYLAEPALDTVKRMKLYAESLARFQGGSPYIYPLYGLGELPQAFARLSAVYGGTYMLNKPECKVEFDEEGKVVGVTSEGETAKCKKVVCDPSYLPGKVRKVGRVARAIAIMSHPIPSTDDSHSVQIILPQKQLGRKSDMYLFCCSYTHNVAPKGKFIAFVSTEAETDQPAIELKPGIDLLGPVDEIFFDIYDRYEPVNEPTLDNCFVSTSYDATTHFESTVDDVLNMYTLITGKVIDLSVDLSAASAAEE
modifications: Glycine max
B7: V-type proton ATPase subunit B 2 (protein)
chain: MGVAQNIPDAEEGTLEIGMEYRTVSGVAGPLVILDKVKGPKFQEIVNIRLGDGTTRRGQVLEVDGEKAVVQVFEGTSGIDNKFTTVQFTGEVLKTPVSLDMLGRIFNGSGKPIDNGPPILPEAYLDISGSSINPSERTYPEEMIQTGISTIDVMNSIARGQKIPLFSAAGLPHNEIAAQICRQAGLVKRLEKSDNLLEGGGEEDNFAIVFAAMGVNMETAQFFKRDFEENGSMERVTLFLNLANDPTIERIITPRIALTTAEYLAYECGKHVLVILTDMSSYADALREVSAAREEVPGRRGYPGYMYTDLATIYERAGRIEGRKGSITQIPILTMPNDDITHPTPDLTGYITEGQIYIDRQLYNRQIYPPINVLPSLSRLMKSAIGEGMTRKDHSDVSNQLYANYAIGKDVQAMKAVVGEEALSSEDLLYLEFLEKFERKFVAQGAYDTRNIFQSLDLAWTLLRIFPRELLHRIPAKTLDQFYSRDASN
modifications: Glycine max
B8: polyadenylate-binding protein 8 isoform X3 (protein)
chain: MAQVLENPTIDAAASGANPSLTTISLYVGDLHHDVNDPQLYDLFNQVAQVVSVRICRDVATQQSLGYGYVNFSNAHDAAKAIDVLNFTPLNGKIIRIMYSIRDPSARKSGAANVFIKNLDKAIDHKALYDTFSAFGNILSCKVATDASGQSKGHGFVQFESEESAQNAIDKLNGMLINDKQVFVGPFLRKQDRESALSGTKFNNVFVKNLLDSMTEADLERIFGEYGAITSAVVMRDVDGKSKGFGFVNFANVDDAAKAVEALNGKNFDGKEWYVGKAQKKSERELELKGQHEQITKETVDKYHGTNLYIKNLDDSVGDEELMELFSEFGTITSCKVMRDPNGISRGSGFVSFSIAEGATRALGEMNGKMVAGKPLYVALAQRKEDRRARLQAQFSQSRPAAITPNVSPRMPLYPLGAPAIGQQFLYGQAAPATIPQHFVPGMRPGGAPNFYVPLVQQGQQGQRPGGHRGSGPMQQLQQPLPLMHQQMLPRGHVYRYPSGSNMQNIQLAGVPGGMVTYGIGQQMPTQALASALANATPEQQRTMLGEALYPLVDKLEHEAAAKVTGMLLEMDQPEVLHLIESPDALKAKVVEAMDVLKKVTQQQSNSPADQLASLSLNDNVES

This test has as its system IgE antibodies from soybean-allergic patients. Description: Immunoblotting of two-dimensional electrophoresis pattern of soybean proteins with patient serum. It counts as binding, human. Conditions: spot in 2D electrophoresis gel of soybean proteins; patient serum compared with healthy subject serum. An excerpt: Transfer to membrane was done using the following transfer system and transfer buffer. • Transfer system: XCell SureLock Mini-Cell and XCell II Blot Module (produced by Life Technologies) • Transfer buffer: NuPAGE Transfer Buffer (X20) (produced by Life Technologies), used in a form diluted 20-fold with milliQ water.
To be specific, proteins in the two-dimensional electrophoresis gels were transferred to a membrane (PVDF membrane) according to the following procedure. • (1) The PVDF membrane was immersed in 100% methanol followed by milliQ water, and then moved into the transfer buffer to hydrophilize the PVDF membrane. • (2) After sponge, filter paper, the gels treated by second-dimensional SDS-PAGE, the hydrophilized PVDF membrane, filter paper, and sponge were put in place in this order, the transfer system was energized at a constant voltage of 30 V for one hour.
Immunoblotting of the membrane was carried out using, as a primary antibody, a serum sample from a patient with a soybean allergy or a serum sample from a healthy subject.
Immunoblotting of the membrane was carried out according to the following procedure. • (1) The transferred membrane was shaken in a 5% skim milk/PBST solution (a PBS buffer containing 0.3% Tween 20 nonionic surfactant) at room temperature for one hour. • (2) The membrane was left to stand in a solution of 3% primary antibody serum in 5% skim milk/PBST at room temperature for one hour. • (3) The membrane was washed with a PBST solution (5 min.×3 times). • (4) The membrane was left to stand in a 1:2500 dilution of the secondary antibody, anti-human IgE-HRP (horseradish peroxidase), with a 3% skim milk/PBST solution at room temperature for one hour. • (5) The membrane was washed with a PBST solution (5 min.×3 times). • (6) The membrane was left to stand in Pierce Western Blotting Substrate Plus (produced by Thermo Fisher Scientific) for 5 minutes.
The membrane obtained through the foregoing series of treatments was subjected to fluorescent image scanning on Typhoon 9400 (produced by GE).
The immunoblots obtained with the serum from the soybean-allergic patient were compared with those obtained with the control serum from the healthy subject.
On the technique in general: A western blot detects proteins with antibodies after separation by electrophoresis.
In the case of B1, the “specific binding to IgE antibodies from soybean-allergic patients” value (shortened to “specific binding to IgE antibodies”) is given as “specific binding”.

For B2, the “specific binding to IgE antibodies” value is “specific binding”.

Consider B3, for which the “specific binding to IgE antibodies” value is given as “specific binding”.

Take B4: the “specific binding to IgE antibodies” value was “specific binding”.

Take B5: the “specific binding to IgE antibodies” value is “specific binding”.

On to B6, for which the “specific binding to IgE antibodies” value is given as “specific binding”.

With B7, the “specific binding to IgE antibodies” value is reported as “specific binding”.

Turning to B8, the “specific binding to IgE antibodies” value is given as “specific binding”.
